The results in this text go back to US20240116985A1 (published 2024).

Starred links: 1 amine or outer side, 2 acyl side, 3 side chain; linkers in the order of their positions; H or OH if unused. Positions of bridges follow the written chain, without caps; N, C: chain ends. Non-standard residues stand in square brackets, D forms with d. Primed or numbered codes have the meaning given here. B5(17) = 2,2-bis(4-pentenyl)glycine = 2-amino-2-(pent-4-en-1-yl)hept-6-enoic acid, stitching residue, C=CCCCC(CCCC=C)(N[*:1])C(=O)[*:2]; B5(24) = 2-amino-2-(pent-4-en-1-yl)hept-6-enoic acid, 2,2-bis(4-pentenyl)glycine (stitching residue), C=CCCCC(CCCC=C)(N[*:1])C(=O)[*:2]; B5(4) = 2,2-bis(4-pentenyl)glycine = 2-amino-2-(pent-4-en-1-yl)hept-6-enoic acid (stitching residue), C=CCCCC(CCCC=C)(N[*:1])C(=O)[*:2]; 6F1NapA = 2-amino-3-(6-fluoronaphthalen-1-yl)propanoic acid, O=C([C@H](Cc1cccc2cc(F)ccc12)N[*:1])[*:2]; B5(3) = 2,2-bis(4-pentenyl)glycine (stitching residue), C=CCCCC(CCCC=C)(N[*:1])C(=O)[*:2]; B5 = 2-amino-2-(pent-4-en-1-yl)hept-6-enoic acid, C=CCCCC(CCCC=C)(N[*:1])C(=O)[*:2]; Phe(3-F) = N[C@@H](Cc1cccc(F)c1)C(=O)O; Phe(3-Me) = Cc1cccc(C[C@H](N)C(=O)O)c1; Bta = N[C@@H](Cc1csc2ccccc12)C(=O)O; hTyr = N[C@@H](CCc1ccc(O)cc1)C(=O)O; αAllylPro = C=CC[C@@]1(C(=O)O)CCCN1; hPhe = N[C@@H](CCc1ccccc1)C(=O)O; 3Pal = N[C@@H](Cc1cccnc1)C(=O)O; S8 = C=CCCCCCC[C@](C)(N)C(=O)O

The target of test [1] is T1, full-length beta-Catenin (Uniprot ID P35222) (Homo sapiens (Human), UniProt P35222 1-781).
T1 construct: The assay text says 'full-length beta-Catenin (Uniprot ID P35222)'; also called bCat; B-Catenin
T1 sequence: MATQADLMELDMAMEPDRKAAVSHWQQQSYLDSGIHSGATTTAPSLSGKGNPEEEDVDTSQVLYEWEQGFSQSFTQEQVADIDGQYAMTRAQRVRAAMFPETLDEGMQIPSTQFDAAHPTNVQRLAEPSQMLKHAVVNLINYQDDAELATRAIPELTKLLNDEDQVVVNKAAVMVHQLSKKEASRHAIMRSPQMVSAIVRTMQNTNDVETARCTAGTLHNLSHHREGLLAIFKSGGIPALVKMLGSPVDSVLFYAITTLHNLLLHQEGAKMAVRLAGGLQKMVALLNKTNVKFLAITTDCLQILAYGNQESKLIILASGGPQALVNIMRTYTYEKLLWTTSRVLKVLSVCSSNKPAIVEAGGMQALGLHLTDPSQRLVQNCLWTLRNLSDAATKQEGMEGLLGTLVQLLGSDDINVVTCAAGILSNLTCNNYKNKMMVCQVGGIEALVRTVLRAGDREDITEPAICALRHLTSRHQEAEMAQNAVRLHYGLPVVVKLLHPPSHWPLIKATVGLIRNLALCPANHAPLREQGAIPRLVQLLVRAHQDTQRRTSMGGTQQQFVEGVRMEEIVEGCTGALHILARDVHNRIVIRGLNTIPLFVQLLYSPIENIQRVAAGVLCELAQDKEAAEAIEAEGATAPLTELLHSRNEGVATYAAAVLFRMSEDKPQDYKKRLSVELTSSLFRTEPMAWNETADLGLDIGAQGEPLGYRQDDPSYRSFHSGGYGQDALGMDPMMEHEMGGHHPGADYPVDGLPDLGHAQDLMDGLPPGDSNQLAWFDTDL
Put plainly: fluorescence polarization competition; full-length beta-catenin, competitor 5FAM-TCF4(10-53) probe. As for the experimental part: The plate was incubated protected from light for 60 minutes at 20° C. prior to read. Reads were performed on a CLARIOstar plate reader (BMG Labtech) in duplicate, and data were fitted to a 1:1 binding model with hill slope using an in-house script. All provided concentrations are final concentrations.

Test [2] has as its target T2, full-length beta-Catenin (Uniprot ID P35222) (Homo sapiens (Human), UniProt P35222 1-781).
T2 construct: Used full-length in the FP and AlphaScreen assays; also called B-Catenin; bCat
T2 sequence: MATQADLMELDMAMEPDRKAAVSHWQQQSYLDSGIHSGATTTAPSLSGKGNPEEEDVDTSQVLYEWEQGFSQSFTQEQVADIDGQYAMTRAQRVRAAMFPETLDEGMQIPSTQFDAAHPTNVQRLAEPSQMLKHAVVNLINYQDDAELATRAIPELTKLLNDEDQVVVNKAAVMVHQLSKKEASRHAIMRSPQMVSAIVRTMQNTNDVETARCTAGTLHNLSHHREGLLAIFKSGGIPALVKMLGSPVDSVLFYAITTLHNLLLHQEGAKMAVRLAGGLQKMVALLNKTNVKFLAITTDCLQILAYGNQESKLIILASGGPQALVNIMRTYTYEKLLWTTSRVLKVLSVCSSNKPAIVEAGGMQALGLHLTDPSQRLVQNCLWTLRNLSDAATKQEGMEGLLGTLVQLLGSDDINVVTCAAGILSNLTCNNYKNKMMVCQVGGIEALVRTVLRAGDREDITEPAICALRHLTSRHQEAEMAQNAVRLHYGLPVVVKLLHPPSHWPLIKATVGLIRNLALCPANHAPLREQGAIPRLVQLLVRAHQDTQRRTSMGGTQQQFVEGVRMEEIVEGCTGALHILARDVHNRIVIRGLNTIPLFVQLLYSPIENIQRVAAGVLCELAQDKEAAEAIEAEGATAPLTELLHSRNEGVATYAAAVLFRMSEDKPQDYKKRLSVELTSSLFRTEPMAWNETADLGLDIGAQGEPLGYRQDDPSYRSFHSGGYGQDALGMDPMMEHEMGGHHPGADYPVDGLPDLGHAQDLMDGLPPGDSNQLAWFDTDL
Briefly: AlphaScreen (nickel chelate) competition; full-length beta-catenin + biotin-TCF4(10-53) probe as competitor; peptide titrated. As for the experimental part:
(§1) Equal volume of the titrated peptide was added to the plate and incubated for 15 minutes at 20° C. Then 4 uL of donor and 4 uL acceptor beads at 10 ug/mL were added to the plate, for a 16 uL reaction pool and protected from light for 60 minutes at 20° C. prior to read. Reads were performed on a CLARIOstar plate reader (BMG Labtech) in duplicate, and data were fitted to a 1:1 binding model with hill slope using an in-house script. All provided concentrations are final concentrations.
(Bead proximity is the source of the signal in Alpha formats.)

For test [3], the target named is T3, full-length beta-Catenin (Uniprot ID P35222) (Homo sapiens (Human), UniProt P35222 1-781).
T3 construct: The assay protocols call it full-length; also called B-Catenin; bCat
T3 sequence: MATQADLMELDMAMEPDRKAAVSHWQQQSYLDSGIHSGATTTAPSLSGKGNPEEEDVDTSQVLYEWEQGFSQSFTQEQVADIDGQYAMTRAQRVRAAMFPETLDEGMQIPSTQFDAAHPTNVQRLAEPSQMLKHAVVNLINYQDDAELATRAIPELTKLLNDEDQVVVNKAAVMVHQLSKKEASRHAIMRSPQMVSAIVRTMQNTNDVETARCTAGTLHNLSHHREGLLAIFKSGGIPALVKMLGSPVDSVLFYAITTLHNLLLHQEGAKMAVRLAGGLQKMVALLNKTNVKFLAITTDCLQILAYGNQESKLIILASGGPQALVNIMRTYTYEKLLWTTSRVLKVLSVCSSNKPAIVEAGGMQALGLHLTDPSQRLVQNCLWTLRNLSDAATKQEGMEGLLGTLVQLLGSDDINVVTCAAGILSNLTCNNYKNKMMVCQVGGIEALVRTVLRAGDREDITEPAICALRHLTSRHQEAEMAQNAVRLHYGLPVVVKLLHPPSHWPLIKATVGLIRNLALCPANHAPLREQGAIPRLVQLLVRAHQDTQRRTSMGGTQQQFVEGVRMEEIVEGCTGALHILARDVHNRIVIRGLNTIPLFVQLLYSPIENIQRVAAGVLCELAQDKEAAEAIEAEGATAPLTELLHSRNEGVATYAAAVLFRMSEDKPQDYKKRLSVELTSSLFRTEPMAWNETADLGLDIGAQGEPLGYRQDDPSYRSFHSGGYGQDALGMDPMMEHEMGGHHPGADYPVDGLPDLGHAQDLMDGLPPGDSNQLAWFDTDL
Put plainly: AlphaScreen competition; full-length beta-catenin with biotin-labelled TCF4 10-53 peptide as competitor. As for the experimental part:
as §1

In test [1], Ac-[αAllylPro]FI[B5(24)]DEAADQ[S8]F[Bta]Q-NH2 (staple 1-4, 4-11, Stapled peptide composition) [I-588] gave an EC50 of 5 µM.

B1: I-577 (peptide)
peptide: XDLXDEAAFNXFXQ
modifications: not fully specified; Ac-PL3-Asp-Leu-B5-Asp-Glu-Ala-Ala-Phe-Asn-S8-Phe-BztA-Gln-NH2; stapled PL3(1)-B5(4) and B5(4)-S8(11) by olefin metathesis
notes: Stapled peptide composition; same description as I-576, later eluting HPLC peak (staple isomer)
Molecule B1 displayed a concentration for a half-maximal effect (EC50) in test [1] of 0.013 µM.

Take Ac-[αAllylPro][Phe(3-Me)]A[B5(3)]DEAAFV[S8]FWQ-NH2 (staple 1-4, 4-11, Stapled peptide composition) [I-203]: in test [2], the 50% effective concentration (EC50) came to 5.99 µM.

Regarding Ac-[αAllylPro]DI[B5(24)]FEAAFQ[S8]D[Bta]Q-NH2 (staple 1-4, 4-11, Stapled peptide composition) [I-587], the EC50 in test [1] stood at 5 µM.

B2: I-576 (peptide)
peptide: XDLXDEAAFNXFXQ
modifications: not fully specified; Ac-PL3-Asp-Leu-B5-Asp-Glu-Ala-Ala-Phe-Asn-S8-Phe-BztA-Gln-NH2; stapled PL3(1)-B5(4) and B5(4)-S8(11) by olefin metathesis
notes: Stapled peptide composition; same description as I-577, earlier eluting HPLC peak (staple isomer)
As for B2, it took 0.023 µM to reach a half-maximal effect in test [1] (EC50).

Regarding Ac-[αAllylPro]DA[B5(4)][3Pal]EAAFV[S8]FWQ-NH2 (staple 1-4, 4-11, Stapled peptide composition) [I-213], the concentration for a half-maximal effect (EC50) in test [2] is 8.05 µM.

B3: I-273 (peptide)
peptide: Ac-[αAllylPro]DA[B5(17)]D[hTyr]AAFV[S8]FWQ-NH2
modifications: staple 1-4, 4-11
notes: Stapled (stitched) peptide; also called Ac-PL3-Asp-Ala-B5-Asp-hTyr-Ala-Ala-Phe-Val-S8-Phe-Trp-Gln-NH2
For the molecule B3, it took 1.89 µM to reach a half-maximal effect in test [3] (EC50).

On to Ac-[αAllylPro]FA[B5(3)]DEAAFV[S8]FWQ-NH2 (staple 1-4, 4-11, Stapled peptide composition) [I-201], for which, in test [2], the EC50 worked out at 6.16 µM.

As to Ac-[αAllylPro][Phe(3-F)]A[B5(3)]DEAAFV[S8]FWQ-NH2 (staple 1-4, 4-11, Stapled peptide composition) [I-204], the EC50 in test [2] was 7.28 µM.

Take Ac-[αAllylPro]YA[B5(3)]DEAAFV[S8]FWQ-NH2 (staple 1-4, 4-11, Stapled peptide composition) [I-202]: in test [2], the EC50 worked out at 7.88 µM.

Consider Ac-[αAllylPro]DA[B5(4)]HEAAFV[S8]FWQ-NH2 (staple 1-4, 4-11, Stapled peptide composition) [I-206], for which the concentration for a half-maximal effect (EC50) in test [2] came out at 2.14 µM.

B4: I-196 (peptide)
peptide: Ac-[αAllylPro]DA[B5(4)][hPhe]EAAFV[S8]FWQ-NH2
modifications: staple 1-4, 4-11
notes: Stapled peptide composition; this is the earlier-eluting isomer composition
With B4, the concentration for a half-maximal effect (EC50) in test [2] turned out to be 5.51 µM.

B5: I-268 (peptide)
peptide: Ac-[αAllylPro]DA[B5(17)]DDAAFV[S8][hPhe]WQ-NH2
modifications: staple 1-4, 4-11
notes: Stapled (stitched) peptide; also called Ac-PL3-Asp-Ala-B5-Asp-Asp-Ala-Ala-Phe-Val-S8-hPhe-Trp-Gln-NH2
In turn, B5 gave an EC50 in test [3] of 4 µM.

B6: I-256 (peptide)
peptide: Ac-[αAllylPro]DA[B5(4)]D[6F1NapA]AAFV[S8]FWQ-NH2
modifications: staple 1-4, 4-11
notes: Stapled (stitched) peptide; also called Ac-PL3-Asp-Ala-B5-Asp-6F1NapA-Ala-Ala-Phe-Val-S8-Phe-Trp-Gln-NH2
The molecule B6 returned an EC50 in test [3] of 9.21 µM.

B7: I-586 (peptide)
peptide: Ac-[αAllylPro]DI[B5(24)]DEAA[Bta]Q[S8]FFQ-NH2
modifications: staple 1-4, 4-11; not fully specified; printed as Ac-PL3-Asp-Ile-B5-Asp-Glu-Ala-Ala-BztA-Gln-S8-Phe-Phe-Gln-NH2
notes: Stapled peptide composition
Regarding B7, the EC50 in test [1] amounted to 5 µM.

In the case of Ac-[αAllylPro]DA[B5(4)]D[hPhe]AAFV[S8]FWQ-NH2 (staple 1-4, 4-11, Stapled peptide composition) [I-195], the 50% effective concentration (EC50) in test [2] worked out at 2.18 µM.

B8: I-581 (peptide)
peptide: XDIXDDAAFQXFXH
modifications: not fully specified; Ac-PL3-Asp-Ile-B5-Asp-Asp-Ala-Ala-Phe-Gln-S8-Phe-BztA-His-NH2; stapled PL3(1)-B5(4) and B5(4)-S8(11) by olefin metathesis
notes: Stapled peptide composition; same description as I-580, later eluting HPLC peak (staple isomer)
On to B8, for which, in test [1], the half-maximal effective concentration (EC50) is 0.112 µM.

Ac-[αAllylPro]DI[B5]DDAAFQ[S8]F[Bta]H-NH2 (staple 1-4, 4-11; not fully specified, Stapled peptide composition) [I-580] had a concentration for a half-maximal effect (EC50) in test [1] of 0.114 µM.

As usually defined, the EC50 is the concentration at which the effect is half-maximal.
